Source: IntAct's records for PubMed 29426014

B1: Ubiquitin-protein ligase (Homo sapiens), Q05086-1 (parent)
chain: MEKLHQCYWKSGEPQSDDIEASRMKRAAAKHLIERYYHQLTEGCGNEACTNEFCASCPTFLRMDNNAAAIKALELYKINAKLCDPHPSKKGASSAYLENSKGAPNNSCSEIKMNKKGARIDFKDVTYLTEEKVYEILELCREREDYSPLIRVIGRVFSSAEALVQSFRKVKQHTKEELKSLQAKDEDKDEDEKEKAACSAAAMEEDSEASSSRIGDSSQGDNNLQKLGPDDVSVDIDAIRRVYTRLLSNEKIETAFLNALVYLSPNVECDLTYHNVYSRDPNYLNLFIIVMENRNLHSPEYLEMALPLFCKAMSKLPLAAQGKLIRLWSKYNADQIRRMMETFQQLITYKVISNEFNSRNLVNDDDAIVAASKCLKMVYYANVVGGEVDTNHNEEDDEEPIPESSELTLQELLGEERRNKKGPRVDPLETELGVKTLDCRKPLIPFEEFINEPLNEVLEMDKDYTFFKVETENKFSFMTCPFILNAVTKNLGLYYDNRIRMYSERRITVLYSLVQGQQLNPYLRLKVRRDHIIDDALVRLEMIAMENPADLKKQLYVEFEGEQGVDEGGVSKEFFQLVVEEIFNPDIGMFTYDESTKLFWFNPSSFETEGQFTLIGIVLGLAIYNNCILDVHFPMVVYRKLMGKKGTFRDLGDSHPVLYQSLKDLLEYEGNVEDDMMITFQISQTDLFGNPMMYDLKENGDKIPITNENRKEFVNLYSDYILNKSVEKQFKAFRRGFHMVTNESPLKYLFRPEEIELLICGSRNLDFQALEETTEYDGGYTRDSVLIREFWEIVHSFTDEQKRLFLQFTTGTDRAPVGGLGKLKMIIAKNGPDTERLPTSHTCFNVLLLPEYSSKEKLKERLLKAITYAKGFGML
partner: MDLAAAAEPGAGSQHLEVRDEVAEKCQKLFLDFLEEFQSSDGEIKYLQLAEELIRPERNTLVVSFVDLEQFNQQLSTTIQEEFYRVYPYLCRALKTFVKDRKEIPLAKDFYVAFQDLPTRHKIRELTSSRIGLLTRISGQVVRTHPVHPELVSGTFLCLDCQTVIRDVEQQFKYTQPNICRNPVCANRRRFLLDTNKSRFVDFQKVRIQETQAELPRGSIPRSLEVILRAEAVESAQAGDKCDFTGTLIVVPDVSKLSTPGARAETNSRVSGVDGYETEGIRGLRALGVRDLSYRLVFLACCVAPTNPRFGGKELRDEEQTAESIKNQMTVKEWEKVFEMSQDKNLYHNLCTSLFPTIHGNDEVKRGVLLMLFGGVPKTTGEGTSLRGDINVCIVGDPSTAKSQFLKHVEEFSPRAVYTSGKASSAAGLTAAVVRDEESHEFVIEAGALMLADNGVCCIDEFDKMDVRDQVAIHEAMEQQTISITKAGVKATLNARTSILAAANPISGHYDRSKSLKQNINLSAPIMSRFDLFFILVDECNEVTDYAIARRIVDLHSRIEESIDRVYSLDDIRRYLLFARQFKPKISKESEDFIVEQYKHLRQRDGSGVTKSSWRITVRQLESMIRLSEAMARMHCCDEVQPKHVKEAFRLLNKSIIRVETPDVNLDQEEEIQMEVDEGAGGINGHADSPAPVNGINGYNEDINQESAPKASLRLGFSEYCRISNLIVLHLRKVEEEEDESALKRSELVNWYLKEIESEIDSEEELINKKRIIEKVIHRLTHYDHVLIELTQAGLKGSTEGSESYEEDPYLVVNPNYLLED
B2: Ubiquitin-protein ligase (Homo sapiens), Q05086-1 (parent)
chain: B1 chain
partner: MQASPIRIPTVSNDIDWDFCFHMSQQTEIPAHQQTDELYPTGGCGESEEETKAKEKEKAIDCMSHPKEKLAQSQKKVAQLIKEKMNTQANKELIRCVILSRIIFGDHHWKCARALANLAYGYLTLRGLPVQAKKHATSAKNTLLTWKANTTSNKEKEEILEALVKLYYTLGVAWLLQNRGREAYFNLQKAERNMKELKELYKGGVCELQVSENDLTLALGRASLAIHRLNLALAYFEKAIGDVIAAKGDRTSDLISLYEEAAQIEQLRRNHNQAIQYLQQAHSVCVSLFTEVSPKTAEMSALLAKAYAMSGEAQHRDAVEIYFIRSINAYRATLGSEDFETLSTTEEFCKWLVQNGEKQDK
B3: Ubiquitin-protein ligase (Homo sapiens), Q05086-2 (parent)
chain: MKRAAAKHLIERYYHQLTEGCGNEACTNEFCASCPTFLRMDNNAAAIKALELYKINAKLCDPHPSKKGASSAYLENSKGAPNNSCSEIKMNKKGARIDFKDVTYLTEEKVYEILELCREREDYSPLIRVIGRVFSSAEALVQSFRKVKQHTKEELKSLQAKDEDKDEDEKEKAACSAAAMEEDSEASSSRIGDSSQGDNNLQKLGPDDVSVDIDAIRRVYTRLLSNEKIETAFLNALVYLSPNVECDLTYHNVYSRDPNYLNLFIIVMENRNLHSPEYLEMALPLFCKAMSKLPLAAQGKLIRLWSKYNADQIRRMMETFQQLITYKVISNEFNSRNLVNDDDAIVAASKCLKMVYYANVVGGEVDTNHNEEDDEEPIPESSELTLQELLGEERRNKKGPRVDPLETELGVKTLDCRKPLIPFEEFINEPLNEVLEMDKDYTFFKVETENKFSFMTCPFILNAVTKNLGLYYDNRIRMYSERRITVLYSLVQGQQLNPYLRLKVRRDHIIDDALVRLEMIAMENPADLKKQLYVEFEGEQGVDEGGVSKEFFQLVVEEIFNPDIGMFTYDESTKLFWFNPSSFETEGQFTLIGIVLGLAIYNNCILDVHFPMVVYRKLMGKKGTFRDLGDSHPVLYQSLKDLLEYEGNVEDDMMITFQISQTDLFGNPMMYDLKENGDKIPITNENRKEFVNLYSDYILNKSVEKQFKAFRRGFHMVTNESPLKYLFRPEEIELLICGSRNLDFQALEETTEYDGGYTRDSVLIREFWEIVHSFTDEQKRLFLQFTTGTDRAPVGGLGKLKMIIAKNGPDTERLPTSHTCFNVLLLPEYSSKEKLKERLLKAITYAKGFGML
B4: Ubiquitin-protein ligase (Homo sapiens), Q05086-1 (parent)
chain: B1 chain

Variants of: B1
Conditions: with mcm6_human MCM6, Q14566

**Q.** Which “effect of a mutation on the interaction” value does the source give for C843A here?
**A.** The value was “with no effect”.

Variants of: B2
Conditions: with TTC23L

**Q.** How did the “effect of a mutation on the interaction” value turn out when C843A was run?
**A.** Its value is “causing an interaction”.

Variants of: B3
Conditions: with ZNF250, P15622-3
Target sequence in this assay (P15622 other isoform, or with tags, fused parts or gaps): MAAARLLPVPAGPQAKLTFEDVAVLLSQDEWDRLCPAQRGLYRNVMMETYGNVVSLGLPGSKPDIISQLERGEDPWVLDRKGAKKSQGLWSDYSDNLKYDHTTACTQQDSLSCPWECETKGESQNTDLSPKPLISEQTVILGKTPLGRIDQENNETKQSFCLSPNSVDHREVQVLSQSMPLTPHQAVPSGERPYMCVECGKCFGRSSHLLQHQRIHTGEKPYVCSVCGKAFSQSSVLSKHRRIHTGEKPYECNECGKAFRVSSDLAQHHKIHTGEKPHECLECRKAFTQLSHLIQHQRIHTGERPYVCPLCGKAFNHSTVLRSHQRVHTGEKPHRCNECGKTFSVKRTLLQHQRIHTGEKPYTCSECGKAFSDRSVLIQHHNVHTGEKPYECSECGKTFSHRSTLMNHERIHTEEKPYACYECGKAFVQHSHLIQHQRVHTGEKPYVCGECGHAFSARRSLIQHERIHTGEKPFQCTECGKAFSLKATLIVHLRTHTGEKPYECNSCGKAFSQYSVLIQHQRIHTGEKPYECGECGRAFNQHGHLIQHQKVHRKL

**Q.** For C820A, which “effect of a mutation on the interaction” value is on record?
**A.** The value was “causing an interaction”.

Variants of: B3
Conditions: with PAX6, P26367-1
Target sequence in this assay (P26367 whole entry): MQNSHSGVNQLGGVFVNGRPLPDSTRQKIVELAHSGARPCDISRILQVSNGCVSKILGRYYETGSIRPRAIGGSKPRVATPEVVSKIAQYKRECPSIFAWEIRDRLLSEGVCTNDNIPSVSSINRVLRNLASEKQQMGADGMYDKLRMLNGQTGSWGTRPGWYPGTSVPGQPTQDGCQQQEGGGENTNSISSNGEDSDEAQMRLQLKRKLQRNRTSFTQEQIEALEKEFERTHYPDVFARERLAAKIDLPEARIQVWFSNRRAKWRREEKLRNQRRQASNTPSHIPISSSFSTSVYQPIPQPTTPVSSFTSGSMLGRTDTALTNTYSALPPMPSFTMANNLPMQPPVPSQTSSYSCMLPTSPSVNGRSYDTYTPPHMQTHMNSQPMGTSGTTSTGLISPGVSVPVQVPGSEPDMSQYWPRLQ

**Q.** How did the “effect of a mutation on the interaction” value turn out when C820A was run?
**A.** The value was “causing an interaction”.

Variants of: B3
Conditions: with magac_human MAGEA12, P43365
Target sequence in this assay (P43365 whole entry): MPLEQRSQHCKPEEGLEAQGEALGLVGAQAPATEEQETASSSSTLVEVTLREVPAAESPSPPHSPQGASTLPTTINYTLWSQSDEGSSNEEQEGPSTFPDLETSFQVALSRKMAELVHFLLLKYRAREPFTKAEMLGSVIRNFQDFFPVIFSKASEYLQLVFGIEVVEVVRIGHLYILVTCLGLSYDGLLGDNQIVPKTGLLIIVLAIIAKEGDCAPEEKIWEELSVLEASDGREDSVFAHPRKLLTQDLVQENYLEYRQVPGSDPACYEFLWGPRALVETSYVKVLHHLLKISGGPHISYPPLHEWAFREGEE

**Q.** Which “effect of a mutation on the interaction” value does the source give for C820A here?
**A.** Its value is “with no effect”.

Variants of: B3
Conditions: with PSMD4, P55036-1
Target sequence in this assay (P55036 whole entry): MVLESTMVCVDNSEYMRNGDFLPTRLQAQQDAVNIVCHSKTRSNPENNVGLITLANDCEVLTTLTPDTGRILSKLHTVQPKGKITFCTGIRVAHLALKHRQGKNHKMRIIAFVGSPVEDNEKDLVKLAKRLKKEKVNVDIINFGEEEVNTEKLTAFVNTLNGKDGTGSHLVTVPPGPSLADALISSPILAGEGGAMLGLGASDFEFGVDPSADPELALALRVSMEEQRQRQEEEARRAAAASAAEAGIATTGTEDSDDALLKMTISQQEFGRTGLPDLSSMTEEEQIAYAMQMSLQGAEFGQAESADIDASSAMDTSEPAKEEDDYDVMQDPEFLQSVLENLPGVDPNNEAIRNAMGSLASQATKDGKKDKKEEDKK

**Q.** How did the “effect of a mutation on the interaction” value turn out when C820A was run?
**A.** Its value is “with no effect”.

Variants of: B3
Conditions: with PAX5, Q02548-1
Target sequence in this assay (Q02548 whole entry): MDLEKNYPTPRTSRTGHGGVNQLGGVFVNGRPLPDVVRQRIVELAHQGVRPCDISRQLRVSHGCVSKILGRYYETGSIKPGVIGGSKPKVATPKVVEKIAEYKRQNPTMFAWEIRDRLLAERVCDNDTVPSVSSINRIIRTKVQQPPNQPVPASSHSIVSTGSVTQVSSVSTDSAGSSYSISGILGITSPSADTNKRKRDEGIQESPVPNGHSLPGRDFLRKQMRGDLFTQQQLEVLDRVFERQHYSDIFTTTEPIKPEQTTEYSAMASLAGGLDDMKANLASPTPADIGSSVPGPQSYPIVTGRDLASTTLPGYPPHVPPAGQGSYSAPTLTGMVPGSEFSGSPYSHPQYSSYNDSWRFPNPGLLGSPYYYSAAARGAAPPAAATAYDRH

**Q.** Which “effect of a mutation on the interaction” value does the source give for C820A here?
**A.** Its value is “causing an interaction”.

Variants of: B3
Conditions: with PTCD3, Q96EY7-1

**Q.** For C820A, which “effect of a mutation on the interaction” value is on record?
**A.** Its value is “with no effect”.

Variants of: B3
Conditions: with ubql2_human UBQLN2, Q9UHD9
Target sequence in this assay (Q9UHD9 whole entry): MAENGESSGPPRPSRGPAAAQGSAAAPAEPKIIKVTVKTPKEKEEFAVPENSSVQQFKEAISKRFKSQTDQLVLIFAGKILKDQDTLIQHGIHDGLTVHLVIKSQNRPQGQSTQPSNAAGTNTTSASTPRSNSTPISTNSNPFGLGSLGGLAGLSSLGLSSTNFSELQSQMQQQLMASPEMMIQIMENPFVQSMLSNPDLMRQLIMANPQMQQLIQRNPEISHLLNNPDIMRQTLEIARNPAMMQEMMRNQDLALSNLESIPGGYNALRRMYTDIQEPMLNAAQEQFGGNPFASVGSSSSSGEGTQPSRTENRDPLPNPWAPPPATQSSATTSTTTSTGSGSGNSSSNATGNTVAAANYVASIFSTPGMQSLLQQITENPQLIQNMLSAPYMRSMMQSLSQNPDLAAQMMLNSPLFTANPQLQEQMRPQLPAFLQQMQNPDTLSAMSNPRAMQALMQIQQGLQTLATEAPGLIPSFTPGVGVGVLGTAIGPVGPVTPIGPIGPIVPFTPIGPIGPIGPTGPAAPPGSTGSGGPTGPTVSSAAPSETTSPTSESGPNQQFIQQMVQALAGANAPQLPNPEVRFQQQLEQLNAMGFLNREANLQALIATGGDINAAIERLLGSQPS

**Q.** With C820A as the variant, how does the “effect of a mutation on the interaction” value read?
**A.** Its value is “with no effect”.

Variants of: B3
Conditions: with UBQLN1, Q9UMX0-1
Target sequence in this assay (Q9UMX0 whole entry): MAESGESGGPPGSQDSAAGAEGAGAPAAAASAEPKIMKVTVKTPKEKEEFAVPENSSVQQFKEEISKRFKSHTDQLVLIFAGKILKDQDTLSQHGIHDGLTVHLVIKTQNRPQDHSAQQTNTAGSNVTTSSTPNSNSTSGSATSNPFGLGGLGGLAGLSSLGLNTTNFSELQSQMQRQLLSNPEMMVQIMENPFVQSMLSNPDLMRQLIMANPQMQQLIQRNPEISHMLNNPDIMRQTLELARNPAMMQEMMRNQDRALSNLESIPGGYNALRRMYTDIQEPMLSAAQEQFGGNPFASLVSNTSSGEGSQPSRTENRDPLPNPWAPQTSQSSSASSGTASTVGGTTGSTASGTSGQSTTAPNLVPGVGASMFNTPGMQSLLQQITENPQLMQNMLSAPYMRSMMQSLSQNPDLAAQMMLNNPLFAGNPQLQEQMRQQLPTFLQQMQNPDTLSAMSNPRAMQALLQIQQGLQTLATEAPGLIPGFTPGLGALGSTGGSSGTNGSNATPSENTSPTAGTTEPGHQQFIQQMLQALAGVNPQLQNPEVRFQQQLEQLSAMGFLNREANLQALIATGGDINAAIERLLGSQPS

**Q.** How did the “effect of a mutation on the interaction” value turn out when C820A was run?
**A.** Its value is “with no effect”.

Variants of: B3
Conditions: with herc2_human HERC2, O95714

**Q.** Which “effect of a mutation on the interaction” value does the source give for C820A here?
**A.** Its value is “causing an interaction”.

Variants of: B4
Conditions: with ZNF250, P15622-3
Target sequence in this assay (P15622 other isoform, or with tags, fused parts or gaps): as the sequence (P15622 other isoform, or with tags, fused parts or gaps) above

**Q.** C843A was tested. Which “effect of a mutation on the interaction” value did it give?
**A.** Its value is “causing an interaction”.

Variants of: B4
Conditions: with PAX6, P26367-1
Target sequence in this assay (P26367 whole entry): as the sequence (P26367 whole entry) above

**Q.** With C843A as the variant, how does the “effect of a mutation on the interaction” value read?
**A.** The value was “causing an interaction”.

Variants of: B4
Conditions: with magac_human MAGEA12, P43365
Target sequence in this assay (P43365 whole entry): as the sequence (P43365 whole entry) above

**Q.** How did the “effect of a mutation on the interaction” value turn out when C843A was run?
**A.** The value was “causing an interaction”.

Variants of: B4
Conditions: with PSMD4, P55036-1
Target sequence in this assay (P55036 whole entry): as the sequence (P55036 whole entry) above

**Q.** C843A was tested. Which “effect of a mutation on the interaction” value did it give?
**A.** Its value is “with no effect”.

Variants of: B4
Conditions: with PAX5, Q02548-1
Target sequence in this assay (Q02548 whole entry): as the sequence (Q02548 whole entry) above

**Q.** Which “effect of a mutation on the interaction” value does the source give for C843A here?
**A.** The value was “causing an interaction”.

Variants of: B4
Conditions: with PTCD3, Q96EY7-1

**Q.** How did the “effect of a mutation on the interaction” value turn out when C843A was run?
**A.** Its value is “with no effect”.

Variants of: B4
Conditions: with ubql2_human UBQLN2, Q9UHD9
Target sequence in this assay (Q9UHD9 whole entry): as the sequence (Q9UHD9 whole entry) above

**Q.** Which “effect of a mutation on the interaction” value does the source give for C843A here?
**A.** Its value is “with no effect”.

Variants of: B4
Conditions: with UBQLN1, Q9UMX0-1
Target sequence in this assay (Q9UMX0 whole entry): as the sequence (Q9UMX0 whole entry) above

**Q.** How did the “effect of a mutation on the interaction” value turn out when C843A was run?
**A.** The value was “with no effect”.
